From the supplement of paper PMC9112550, “Optimization of the antimicrobial peptide Bac7 by deep mutational scanning” (BMC Biology, 2022)

Tested on: Escherichia coli TOP10
Test: shrunken log2 fold change of peptide-encoding DNA abundance (4.5 h post-induction vs induction); higher = less antimicrobial activity (less host growth inhibition)
Details: time post-induction: 4.5 h; library: site-saturation at positions 5, 18, 19, 20
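Further: peptides expressed intracellularly from a pBAD plasmid library in pooled LB shake-flask culture, induced with 0.3% L-arabinose, DNA abundance read by NGS, three biological replicates, DESeq2 with apeglm shrinkage.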

Sequence: RRIRGRPPRLPRPRPRPCQTPRP
- shrunken log2 fold change: 0.0774

Sequence: RRIRYRPPRLPRPRPRPGYPPRP
- shrunken log2 fold change: -0.299

Sequence: RRIRRRPPRLPRPRPRPVTWPRP
- shrunken log2 fold change: 0.182

Sequence: RRIRHRPPRLPRPRPRPPKQPRP
- shrunken log2 fold change: -0.00419

Sequence: RRIRLRPPRLPRPRPRPMFLPRP
- shrunken log2 fold change: -0.0362

Sequence: RRIRRRPPRLPRPRPRPSHSPRP
- shrunken log2 fold change: -0.00512

Sequence: RRIRFRPPRLPRPRPRPLIVPRP
- shrunken log2 fold change: -0.473

Sequence: RRIRCRPPRLPRPRPRPISWPRP
- shrunken log2 fold change: -0.105

Sequence: RRIRLRPPRLPRPRPRPWCVPRP
- shrunken log2 fold change: -0.35

Sequence: RRIRCRPPRLPRPRPRPFWGPRP
- shrunken log2 fold change: 0.0697

Sequence: RRIRGRPPRLPRPRPRPGRVPRP
- shrunken log2 fold change: 0.554

Sequence: RRIRVRPPRLPRPRPRPNHVPRP
- shrunken log2 fold change: -0.3

Sequence: RRIRYRPPRLPRPRPRPVQSPRP
- shrunken log2 fold change: -0.017

Sequence: RRIRPRPPRLPRPRPRPMAVPRP
- shrunken log2 fold change: 0.0404

Sequence: RRIRNRPPRLPRPRPRPSDHPRP
- shrunken log2 fold change: -0.381

Sequence: RRIRFRPPRLPRPRPRPFDVPRP
- shrunken log2 fold change: -0.247

Sequence: RRIRARPPRLPRPRPRPVAQPRP
- shrunken log2 fold change: 0.661

Sequence: RRIRDRPPRLPRPRPRPMACPRP
- shrunken log2 fold change: -0.00146

Sequence: RRIRNRPPRLPRPRPRPQSVPRP
- shrunken log2 fold change: -0.0373

Sequence: RRIRHRPPRLPRPRPRPAHLPRP
- shrunken log2 fold change: 0.0167

Sequence: RRIRDRPPRLPRPRPRPMWVPRP
- shrunken log2 fold change: 0.179

Sequence: RRIRIRPPRLPRPRPRPYNSPRP
- shrunken log2 fold change: -0.0199

Sequence: RRIRKRPPRLPRPRPRPKKAPRP
- shrunken log2 fold change: 0.0547

Sequence: RRIRVRPPRLPRPRPRPTKKPRP
- shrunken log2 fold change: -0.0633

Sequence: RRIRMRPPRLPRPRPRPEDDPRP
- shrunken log2 fold change: -0.01

Sequence: RRIRIRPPRLPRPRPRPQKHPRP
- shrunken log2 fold change: -0.46

Sequence: RRIRTRPPRLPRPRPRPHSTPRP
- shrunken log2 fold change: -0.374

Sequence: RRIRPRPPRLPRPRPRPVWHPRP
- shrunken log2 fold change: 0.186

Sequence: RRIRPRPPRLPRPRPRPNCTPRP
- shrunken log2 fold change: -0.0727

Sequence: RRIRQRPPRLPRPRPRPCIFPRP
- shrunken log2 fold change: -0.142

Sequence: RRIRCRPPRLPRPRPRPPDQPRP
- shrunken log2 fold change: 0.581

Sequence: RRIRLRPPRLPRPRPRPSYSPRP
- shrunken log2 fold change: -0.589

Sequence: RRIRCRPPRLPRPRPRPIDSPRP
- shrunken log2 fold change: -0.197

Sequence: RRIRQRPPRLPRPRPRPYIKPRP
- shrunken log2 fold change: -1.38

Sequence: RRIRIRPPRLPRPRPRPDMRPRP
- shrunken log2 fold change: -0.0655

Sequence: RRIRKRPPRLPRPRPRPVVKPRP
- shrunken log2 fold change: -0.0849

Sequence: RRIRGRPPRLPRPRPRPHHLPRP
- shrunken log2 fold change: 0.374

Sequence: RRIRWRPPRLPRPRPRPVCPPRP
- shrunken log2 fold change: 0.142

Sequence: RRIRTRPPRLPRPRPRPAKCPRP
- shrunken log2 fold change: 0.0582

Sequence: RRIRKRPPRLPRPRPRPERLPRP
- shrunken log2 fold change: 0.209

Sequence: RRIRKRPPRLPRPRPRPSSRPRP
- shrunken log2 fold change: -0.038

Sequence: RRIRDRPPRLPRPRPRPDTPPRP
- shrunken log2 fold change: 0.0945

Sequence: RRIRERPPRLPRPRPRPMYHPRP
- shrunken log2 fold change: -0.594

Sequence: RRIRDRPPRLPRPRPRPPGTPRP
- shrunken log2 fold change: 0.435

Sequence: RRIRRRPPRLPRPRPRPKDYPRP
- shrunken log2 fold change: -0.485

Sequence: RRIRGRPPRLPRPRPRPQFGPRP
- shrunken log2 fold change: 0.0436

Sequence: RRIRCRPPRLPRPRPRPSIVPRP
- shrunken log2 fold change: -0.965

Sequence: RRIRKRPPRLPRPRPRPCMGPRP
- shrunken log2 fold change: 0.045

Sequence: RRIRVRPPRLPRPRPRPMMHPRP
- shrunken log2 fold change: -0.365

Sequence: RRIRNRPPRLPRPRPRPVQIPRP
- shrunken log2 fold change: 0.00489

Sequence: RRIRYRPPRLPRPRPRPPFFPRP
- shrunken log2 fold change: -0.0804

Sequence: RRIRDRPPRLPRPRPRPVAVPRP
- shrunken log2 fold change: 0.453

Sequence: RRIRHRPPRLPRPRPRPFQYPRP
- shrunken log2 fold change: -0.147

Sequence: RRIRERPPRLPRPRPRPPYKPRP
- shrunken log2 fold change: -0.107

Sequence: RRIRTRPPRLPRPRPRPIGRPRP
- shrunken log2 fold change: -0.159

Sequence: RRIRWRPPRLPRPRPRPQMMPRP
- shrunken log2 fold change: -0.0594

Sequence: RRIRKRPPRLPRPRPRPGYRPRP
- shrunken log2 fold change: 0.129

Sequence: RRIRFRPPRLPRPRPRPEEPPRP
- shrunken log2 fold change: 0.248

Sequence: RRIRNRPPRLPRPRPRPFGAPRP
- shrunken log2 fold change: 0.00377

Sequence: RRIRMRPPRLPRPRPRPRANPRP
- shrunken log2 fold change: 0.922

Sequence: RRIRKRPPRLPRPRPRPQPQPRP
- shrunken log2 fold change: 0.817

Sequence: RRIRARPPRLPRPRPRPVDMPRP
- shrunken log2 fold change: -0.109

Sequence: RRIRDRPPRLPRPRPRPMFHPRP
- shrunken log2 fold change: -0.0543

Sequence: RRIRCRPPRLPRPRPRPQFCPRP
- shrunken log2 fold change: -0.187

Sequence: RRIRERPPRLPRPRPRPKIQPRP
- shrunken log2 fold change: -0.259

Sequence: RRIRKRPPRLPRPRPRPDPDPRP
- shrunken log2 fold change: 0.431

Sequence: RRIRRRPPRLPRPRPRPEQGPRP
- shrunken log2 fold change: 0.0344

Sequence: RRIRQRPPRLPRPRPRPKMRPRP
- shrunken log2 fold change: 0.0141

Sequence: RRIRRRPPRLPRPRPRPSICPRP
- shrunken log2 fold change: 0.00217

Sequence: RRIRYRPPRLPRPRPRPVYWPRP
- shrunken log2 fold change: -0.763

Sequence: RRIRTRPPRLPRPRPRPWNMPRP
- shrunken log2 fold change: -0.276

Sequence: RRIRRRPPRLPRPRPRPLLYPRP
- shrunken log2 fold change: 0.138

Sequence: RRIRFRPPRLPRPRPRPWPNPRP
- shrunken log2 fold change: -0.086

Sequence: RRIRMRPPRLPRPRPRPTVGPRP
- shrunken log2 fold change: 0.146

Sequence: RRIRVRPPRLPRPRPRPLLRPRP
- shrunken log2 fold change: 0.0947

Sequence: RRIRLRPPRLPRPRPRPSHKPRP
- shrunken log2 fold change: -0.354

Sequence: RRIRCRPPRLPRPRPRPIDLPRP
- shrunken log2 fold change: -0.271

Sequence: RRIRHRPPRLPRPRPRPPPDPRP
- shrunken log2 fold change: 0.646

Sequence: RRIRFRPPRLPRPRPRPLDYPRP
- shrunken log2 fold change: -0.0121

Sequence: RRIRIRPPRLPRPRPRPQHMPRP
- shrunken log2 fold change: -0.94

Sequence: RRIRTRPPRLPRPRPRPFIGPRP
- shrunken log2 fold change: -0.353

Sequence: RRIRMRPPRLPRPRPRPGGCPRP
- shrunken log2 fold change: 0.888

Sequence: RRIRARPPRLPRPRPRPCIIPRP
- shrunken log2 fold change: -0.076

Sequence: RRIRSRPPRLPRPRPRPMVCPRP
- shrunken log2 fold change: 0.188

Sequence: RRIRKRPPRLPRPRPRPSHCPRP
- shrunken log2 fold change: -0.578

Sequence: RRIRLRPPRLPRPRPRPMHKPRP
- shrunken log2 fold change: -0.449

Sequence: RRIRIRPPRLPRPRPRPLKGPRP
- shrunken log2 fold change: -0.0404

Sequence: RRIRVRPPRLPRPRPRPTDDPRP
- shrunken log2 fold change: -0.183

Sequence: RRIRKRPPRLPRPRPRPGQAPRP
- shrunken log2 fold change: 0.383

Sequence: RRIRLRPPRLPRPRPRPERSPRP
- shrunken log2 fold change: 0.293

Sequence: RRIRFRPPRLPRPRPRPISCPRP
- shrunken log2 fold change: -0.038

Sequence: RRIRDRPPRLPRPRPRPRIEPRP
- shrunken log2 fold change: 0.119

Sequence: RRIRCRPPRLPRPRPRPTQGPRP
- shrunken log2 fold change: 0.954

Sequence: RRIRNRPPRLPRPRPRPMANPRP
- shrunken log2 fold change: -9.3e-05

Sequence: RRIRRRPPRLPRPRPRPKQVPRP
- shrunken log2 fold change: 0.351

Sequence: RRIRVRPPRLPRPRPRPHNPPRP
- shrunken log2 fold change: -0.272

Sequence: RRIRMRPPRLPRPRPRPLRRPRP
- shrunken log2 fold change: 1.94

Sequence: RRIRTRPPRLPRPRPRPDSTPRP
- shrunken log2 fold change: -0.232

Sequence: RRIRTRPPRLPRPRPRPPQIPRP
- shrunken log2 fold change: 0.16

Sequence: RRIRGRPPRLPRPRPRPVVKPRP
- shrunken log2 fold change: 0.246

Sequence: RRIRCRPPRLPRPRPRPFKNPRP
- shrunken log2 fold change: -0.967

Sequence: RRIRPRPPRLPRPRPRPPLMPRP
- shrunken log2 fold change: 0.199

Sequence: RRIRVRPPRLPRPRPRPVETPRP
- shrunken log2 fold change: 0.0754

Sequence: RRIRGRPPRLPRPRPRPDYRPRP
- shrunken log2 fold change: 0.127

Sequence: RRIRKRPPRLPRPRPRPVPHPRP
- shrunken log2 fold change: 0.189

Sequence: RRIRVRPPRLPRPRPRPEGSPRP
- shrunken log2 fold change: 0.464

Sequence: RRIRCRPPRLPRPRPRPVWRPRP
- shrunken log2 fold change: 0.358

Sequence: RRIRGRPPRLPRPRPRPSRQPRP
- shrunken log2 fold change: 0.133

Sequence: RRIRFRPPRLPRPRPRPGASPRP
- shrunken log2 fold change: 0.109

Sequence: RRIRQRPPRLPRPRPRPNLAPRP
- shrunken log2 fold change: 0.281

Sequence: RRIRFRPPRLPRPRPRPWGHPRP
- shrunken log2 fold change: -0.000438

Sequence: RRIRARPPRLPRPRPRPTMMPRP
- shrunken log2 fold change: 0.496

Sequence: RRIRMRPPRLPRPRPRPWVPPRP
- shrunken log2 fold change: -0.0184

Sequence: RRIRSRPPRLPRPRPRPGSDPRP
- shrunken log2 fold change: 0.0314

Sequence: RRIRMRPPRLPRPRPRPWVHPRP
- shrunken log2 fold change: 0.031

Sequence: RRIRTRPPRLPRPRPRPSDKPRP
- shrunken log2 fold change: -0.0752

Sequence: RRIRWRPPRLPRPRPRPTQFPRP
- shrunken log2 fold change: 0.0858

Sequence: RRIRDRPPRLPRPRPRPVGKPRP
- shrunken log2 fold change: 0.0278

Sequence: RRIRGRPPRLPRPRPRPDNKPRP
- shrunken log2 fold change: -0.169

Sequence: RRIRLRPPRLPRPRPRPAVPPRP
- shrunken log2 fold change: 0.3

Sequence: RRIRGRPPRLPRPRPRPMWMPRP
- shrunken log2 fold change: 0.118

Sequence: RRIRTRPPRLPRPRPRPAIVPRP
- shrunken log2 fold change: 0.00191

Sequence: RRIRDRPPRLPRPRPRPKSAPRP
- shrunken log2 fold change: 0.0797

Sequence: RRIRARPPRLPRPRPRPMAIPRP
- shrunken log2 fold change: -0.0621

Sequence: RRIRCRPPRLPRPRPRPFCYPRP
- shrunken log2 fold change: -0.733

Sequence: RRIRDRPPRLPRPRPRPDTRPRP
- shrunken log2 fold change: 0.203

Sequence: RRIRNRPPRLPRPRPRPYLTPRP
- shrunken log2 fold change: -0.332

Sequence: RRIRQRPPRLPRPRPRPQCCPRP
- shrunken log2 fold change: -0.0133

Sequence: RRIRARPPRLPRPRPRPCSHPRP
- shrunken log2 fold change: 0.0574

Sequence: RRIRQRPPRLPRPRPRPLHNPRP
- shrunken log2 fold change: 0.00263

Sequence: RRIRCRPPRLPRPRPRPQELPRP
- shrunken log2 fold change: -0.212

Sequence: RRIRCRPPRLPRPRPRPNNAPRP
- shrunken log2 fold change: -0.799

Sequence: RRIRDRPPRLPRPRPRPLPEPRP
- shrunken log2 fold change: 0.0958

Sequence: RRIRSRPPRLPRPRPRPTNCPRP
- shrunken log2 fold change: 0.0777

Sequence: RRIRMRPPRLPRPRPRPLDWPRP
- shrunken log2 fold change: 0.474

Sequence: RRIRRRPPRLPRPRPRPSANPRP
- shrunken log2 fold change: 0.326

Sequence: RRIRIRPPRLPRPRPRPWHFPRP
- shrunken log2 fold change: -0.0737

Sequence: RRIRTRPPRLPRPRPRPGDSPRP
- shrunken log2 fold change: 0.152

Sequence: RRIRERPPRLPRPRPRPYTKPRP
- shrunken log2 fold change: -0.277

Sequence: RRIRPRPPRLPRPRPRPAAEPRP
- shrunken log2 fold change: 0.595

Sequence: RRIRDRPPRLPRPRPRPSYSPRP
- shrunken log2 fold change: -0.581

Sequence: RRIRSRPPRLPRPRPRPQNWPRP
- shrunken log2 fold change: 0.269

Sequence: RRIRGRPPRLPRPRPRPHIWPRP
- shrunken log2 fold change: 0.00296

Sequence: RRIRIRPPRLPRPRPRPPMCPRP
- shrunken log2 fold change: -0.0556

Sequence: RRIRCRPPRLPRPRPRPRSMPRP
- shrunken log2 fold change: -0.0145

Sequence: RRIRNRPPRLPRPRPRPHRPPRP
- shrunken log2 fold change: 0.128

Sequence: RRIRYRPPRLPRPRPRPEYWPRP
- shrunken log2 fold change: -0.692

Sequence: RRIRGRPPRLPRPRPRPTQFPRP
- shrunken log2 fold change: 0.772

Sequence: RRIRSRPPRLPRPRPRPRTGPRP
- shrunken log2 fold change: 0.185

Sequence: RRIRTRPPRLPRPRPRPRPGPRP
- shrunken log2 fold change: 0.621
